From patent publication US20190248900A1 (Y BIOLOGICS, published 2019)
Where a chain is given by its changes, count along the chain named.

T1: ITGA6-Fc
T1 construct: Fc fusion
T1 sequence (P23229 whole entry, species assumed, looked up): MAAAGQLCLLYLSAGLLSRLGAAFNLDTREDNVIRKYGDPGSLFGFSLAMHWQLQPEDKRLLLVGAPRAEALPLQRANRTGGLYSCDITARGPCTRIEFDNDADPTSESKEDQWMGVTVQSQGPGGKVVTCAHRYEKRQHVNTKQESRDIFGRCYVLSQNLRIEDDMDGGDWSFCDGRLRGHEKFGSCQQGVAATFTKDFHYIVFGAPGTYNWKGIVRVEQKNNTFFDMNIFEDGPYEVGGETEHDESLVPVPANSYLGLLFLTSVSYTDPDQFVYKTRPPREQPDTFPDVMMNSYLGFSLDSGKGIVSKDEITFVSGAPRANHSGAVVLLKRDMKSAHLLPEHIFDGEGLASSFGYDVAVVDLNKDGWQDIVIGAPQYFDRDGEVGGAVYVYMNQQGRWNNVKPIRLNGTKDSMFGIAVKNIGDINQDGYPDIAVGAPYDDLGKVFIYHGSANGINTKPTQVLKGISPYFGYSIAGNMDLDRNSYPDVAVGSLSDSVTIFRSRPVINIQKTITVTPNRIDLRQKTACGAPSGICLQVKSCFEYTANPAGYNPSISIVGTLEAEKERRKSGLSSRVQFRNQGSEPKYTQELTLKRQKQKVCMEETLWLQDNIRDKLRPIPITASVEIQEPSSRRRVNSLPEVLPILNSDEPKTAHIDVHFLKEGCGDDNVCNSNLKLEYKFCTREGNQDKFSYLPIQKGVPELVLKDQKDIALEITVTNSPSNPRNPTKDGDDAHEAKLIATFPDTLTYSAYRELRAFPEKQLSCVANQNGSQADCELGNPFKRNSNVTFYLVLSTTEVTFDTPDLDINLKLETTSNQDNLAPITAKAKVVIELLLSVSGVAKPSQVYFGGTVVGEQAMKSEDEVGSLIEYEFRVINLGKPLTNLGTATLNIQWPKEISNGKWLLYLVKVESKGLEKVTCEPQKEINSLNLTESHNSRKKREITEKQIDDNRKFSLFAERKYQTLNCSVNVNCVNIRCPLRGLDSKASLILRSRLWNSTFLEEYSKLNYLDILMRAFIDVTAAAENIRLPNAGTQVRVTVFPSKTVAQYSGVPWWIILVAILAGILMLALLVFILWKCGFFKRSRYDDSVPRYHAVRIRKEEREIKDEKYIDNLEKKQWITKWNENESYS

B1: PD1-41C9 (antibody, V domains shown)
VH: QMQLVESGGGVVQPGRSLRLSCAASGFTFSSYAMHWVRQAPGKGLEWVAVISYDGSNKYYADSVKGRFTISRDNSKNTLYLQMNRLRSEDTAVYYCTTTTFDSWGQGTLITVSS
VL: DIVMTQTPLSLPVTPGEAASISCRSSQSLLDSEDGNTYLDWYLQKPGQSPQLLIYTLSHRASGVPDRFSGSGSGTDFTLKISRVAAEDVGLYYCLQRMGFPYTFGQGTKLDIK
notes: scFv-phage in the screening ELISA; whole IgG in the other assays
B2: PD1-49A2 (antibody, V domains shown)
VH: B1 VH with M2V, S75P, R85S, S88A, Q106R, I110V
VL: B1 VL with T7S, A18P, L30F, E33D, A85E, L91I, L110V, D111E
notes: scFv-phage in the screening ELISA; whole IgG in the other assays; also called Parent 49A2
B3: PD1-45D6 (antibody, V domains shown)
VH: QVQLVESGGGVVQPGRSLRLSCAASGFTFSSYAMHWVRQVPGKGLEWVAVISYDGNDKYYADSVKGRFTISRDNSKNTLYLQMNSLRAEDTAVYYCVPTTFEYWGQGSQVTVSS
VL: DIVMTQTPLSLPVTPGEAASISCRSSQSLLDSDDGKTYLDWYLQKPGQSPQLLIYTLSYRASGVPDRFSGSGSGTEFNLRISRVEAEDVGIYYCMQRVEFPFTFGQGTKLDIK
notes: as for B1
B4: PD1-52E8 (antibody, V domains shown)
VH: QVQLVQSGGNLVQPGRSLRLSCAASGFTFDDYAMHWVRQAPGKGLEWVSGISWNSGTPGYADSVQGRFTISRDNAKNSLYLQMNSLRAEDTAVYYCARGHNYLDSSYYDYWGQGTLVTVSS
VL: SYELTQPLSLSVAPGQTARITCSGDALSKEYSYWYQQKPGQAPVLVMYKDSERPSGIPERFSGSSSGTTVTLTISGVQAEDEADYYCQSVDSSDTSVVFGGGTKLTVL
notes: as for B1

Biological target: human PD-1 (NM_005018.2) over-expressed on cells (human, UniProt Q15116 25-288)
Assay: cell-based or functional assay

human PD-1 (NM_005018.2) over-expressed on cells, sequence (Q15116 25-288): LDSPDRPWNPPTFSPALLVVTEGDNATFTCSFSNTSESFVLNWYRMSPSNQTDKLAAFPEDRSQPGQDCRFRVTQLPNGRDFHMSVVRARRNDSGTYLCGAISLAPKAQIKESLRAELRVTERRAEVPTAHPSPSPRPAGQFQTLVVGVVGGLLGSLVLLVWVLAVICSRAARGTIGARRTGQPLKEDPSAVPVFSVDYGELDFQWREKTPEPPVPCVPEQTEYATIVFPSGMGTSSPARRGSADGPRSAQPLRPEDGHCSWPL

In order of rising “EC50 [nM], PD1/PD-L1 blockade bioassay” value:
1. B3  2 nM
2. B2  3.78 nM
3. B1  3.91 nM
4. B4  8.43 nM

Biological target: T2, M2-1
T2 construct: also called PD1 mutant M2-1
Assay: ELISA, 1 ug/ml

In order of rising OD490:
1. B4  2.9
2. B1  3.4
3. B2  3.7
4. B3  3.9

Biological target: T3, M2-2
T3 construct: also called PD1 mutant M2-2
Assay: ELISA, 1 ug/ml

In order of falling OD490:
1. B2  3.8
2. B3  3.8
3. B4  3.4
4. B1  3.2

Biological target: T4, M3
T4 construct: also called PD1 mutant M3
Assay: ELISA, 1 ug/ml

In order of rising OD490:
1. B4  1.5
2. B1  2.3
3. B2  3.4
4. B3  3.8

Biological target: T5, M4
T5 construct: also called PD1 mutant M4
Assay: ELISA, 1 ug/ml

In order of falling OD490:
1. B2  3.9
2. B3  3.9
3. B4  3.7
4. B1  3.2

Biological target: T6, M11
T6 construct: also called PD1 mutant M11
Assay: ELISA, 1 ug/ml

In order of rising OD490:
1. B4  0.2
2. B2  0.4
3. B3  0.7
4. B1  0.9

Biological target: T7, M5
T7 construct: also called PD1 mutant M5
Assay: ELISA, 1 ug/ml

In order of falling OD490:
1. B3  3.6
2. B1  2.3
3. B2  1.2
4. B4  0.5

Biological target: T8, M5-1
T8 construct: also called PD1 mutant M5-1
Assay: ELISA, 1 ug/ml

In order of falling OD490:
1. B3  3.8
2. B1  2.8
3. B2  0.7
4. B4  0.3

Biological target: T9, M5-2
T9 construct: also called PD1 mutant M5-2
Assay: ELISA, 1 ug/ml

In order of rising OD490:
1. B4  3.5
2. B1  3.6
3. B2  3.8
4. B3  3.9

Biological target: T10, M6
T10 construct: also called PD1 mutant M6
Assay: ELISA, 1 ug/ml

In order of rising OD490:
1. B4  3.4
2. B1  3.6
3. B2  3.9
4. B3  3.9

Biological target: T11, M12
T11 construct: also called PD1 mutant M12
Assay: ELISA, 1 ug/ml

In order of falling OD490:
1. B2  3.9
2. B3  3.9
3. B4  3.2
4. B1  3.1

Biological target: T12, M13
T12 construct: also called PD1 mutant M13
Assay: ELISA, 1 ug/ml

In order of rising OD490:
1. B1  3.6
2. B2  3.9
3. B4  3.9
4. B3  4

Biological target: T13, M14
T13 construct: also called PD1 mutant M14
Assay: ELISA, 1 ug/ml

In order of falling OD490:
1. B2  3.9
2. B3  3.9
3. B1  3.5
4. B4  2.6

Biological target: T14, M7
T14 construct: also called PD1 mutant M7
Assay: ELISA, 1 ug/ml

In order of rising OD490:
1. B2  0.4
2. B3  0.5
3. B1  0.8
4. B4  1

Biological target: T15, M7-1
T15 construct: also called PD1 mutant M7-1
Assay: ELISA, 1 ug/ml

In order of rising OD490:
1. B2  0.5
2. B4  1.1
3. B1  1.2
4. B3  1.3

Biological target: T16, M7-2
T16 construct: also called PD1 mutant M7-2
Assay: ELISA, 1 ug/ml

In order of falling OD490:
1. B3  4
2. B4  3.9
3. B1  3
4. B2  2.2

Biological target: T17, M8
T17 construct: also called PD1 mutant M8
Assay: ELISA, 1 ug/ml

In order of falling OD490:
1. B3  3.8
2. B2  3
3. B1  2.5
4. B4  0.6

Biological target: T18, M9
T18 construct: also called PD1 mutant M9
Assay: ELISA, 1 ug/ml

In order of rising OD490:
1. B4  2.4
2. B1  3.3
3. B2  3.7
4. B3  3.8

Biological target: T19, M10
T19 construct: also called PD1 mutant M10
Assay: ELISA, 1 ug/ml

In order of rising OD490:
1. B4  1
2. B2  2.6
3. B1  3.4
4. B3  3.9

Biological target: T1, ITGA6-Fc
Assay: ELISA, 1 ug/ml

In order of falling OD490:
1. B1  0.5
2. B3  0.5
3. B2  0.2
4. B4  0.1

Biological target: T20, M1
T20 construct: also called PD1 mutant M1
Assay: ELISA, 1 ug/ml

In order of falling OD490:
1. B3  4
2. B1  3.2
3. B2  3
4. B4  1.4

Biological target: T21, M1-1
T21 construct: also called PD1 mutant M1-1
Assay: ELISA, 1 ug/ml

In order of falling OD490:
1. B3  3.8
2. B2  3.4
3. B1  3.1
4. B4  1.5

Biological target: T22, M1-2
T22 construct: also called PD1 mutant M1-2
Assay: ELISA, 1 ug/ml

In order of rising OD490:
1. B1  3.2
2. B4  3.6
3. B2  3.8
4. B3  3.9

Biological target: T23, PD1-his (Catalog Number 10377-H08H, Sino Biological Inc.) (UniProt Q15116 25-167)
T23 construct: bought protein; not shown: His tag
Assay: ELISA, 1 ug/ml

T23 sequence (Q15116 25-167 limits assumed): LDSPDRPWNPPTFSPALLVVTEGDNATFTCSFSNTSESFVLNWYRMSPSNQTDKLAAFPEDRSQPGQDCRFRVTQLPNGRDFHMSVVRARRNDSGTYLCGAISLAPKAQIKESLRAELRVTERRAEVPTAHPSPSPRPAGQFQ

In order of falling OD490:
1. B3  3.8
2. B2  3.6
3. B1  3.2
4. B4  0.4

Biological target: T2, M2-1
Assay: scFv-phage ELISA

In order of rising OD490:
1. B4  2.9
2. B1  3.4
3. B2  3.7
4. B3  3.9

Biological target: T3, M2-2
Assay: scFv-phage ELISA

In order of rising OD490:
1. B1  3.2
2. B4  3.4
3. B2  3.8
4. B3  3.8

Biological target: T6, M11
Assay: scFv-phage ELISA

In order of falling OD490:
1. B1  0.9
2. B3  0.7
3. B2  0.4
4. B4  0.2

Biological target: T24, antigen PD1 (coated, construct not stated) (UniProt Q15116 25-170, limits assumed)
T24 construct: also called PD1 antigen; PDCD1
Assay: scFv-phage ELISA

T24 sequence (Q15116 25-170 limits assumed): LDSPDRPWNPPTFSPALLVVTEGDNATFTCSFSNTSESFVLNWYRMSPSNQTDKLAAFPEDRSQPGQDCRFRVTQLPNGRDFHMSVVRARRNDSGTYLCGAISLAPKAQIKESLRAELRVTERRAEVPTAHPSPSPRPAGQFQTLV

In order of rising OD490:
1. B4  0.4
2. B1  3.2
3. B2  3.6
4. B3  3.8
